Test results published in US20250101120A1 (BEIJING SOLOBIO GENETECHNOLOGY, published 2025).
Where two headings read alike, the source gives them in different places.

B1: APG101 (Fas fusion protein, Apogenix) (Fc fusion, UniProt P25445 26-172, looked up)
chain: QVTDINSKGLELRKTVTTVETQNLEGLHHDGQFCHKPCPPGERKARDCTVNGDEPDCVPCQEGKEYTDKAHFSSKCRRCRLCDEGHGLEVEINCTRTQNTKCRCKPNFFCNSTVCEHCDPCTKCEHGIIKECTLTSNTKCKEEGSRS
notes: also called Fas-Fc fusion protein APG101; FasL antagonist APG101; not shown: Fc part of APG101
B2: FL-M78 (antibody, V domains shown)
VH: DVQLQESGGGLVQPGGSRKLSCAASGFTFSSYDMSWVRQTPEKRLEWVAFISSGGGSTYYPDTVKGRFTISRDNAKNTLYLQMSSLKSEDSAMYYCGRHYDNYLYAMDYWGQGTSVTVSS
VL: DIVMTQSPASQSASLGESVTITCLASQTIGTWLAWYQQKPGKSPQLLIYAATSLADGVPSRFSGSGSGTKFSFKISSLQAEDFVSYYCQQLYSTPFTFGGGTKLEIK
notes: Chimeric full-length antibody, tested as human IgG4 / human kappa
B3: humFL-M88-1 (antibody, human IgG4, V domains shown)
VH: QVQLVQSGAEVKKPGASVKVSCKGSGYTFTDYTIHWVRQAPGQGLEWIGVISTYQGDASYNQKFKGRATMTVDKSTSTAYMELSSLRSEDTAVYYCARFPDWDYAMDYWGQGTLVTVSS
VL: EIVMTQSPATLSVSPGERATLSCKASQSVDYDGDSYMNWYQQKPGQPPRLLIYAASNLESGIPARFSGSGSGTEFTLTISSLQSEDFAVYYCQHSRELPYTFGQGTKLEIK
notes: Humanized FL-M88
B4: humFL-M88-15 (antibody, human IgG4, V domains shown)
VH: QVQLVQSGAEVKKPGASVKVSCKGSGYTFTDYTIHWVRQAPGQGLEWMGVISTYQGDASYNQKFKGRATMTVDKSTSTAYMELSSLRSEDTAVYYCARFPDWDYAMDYWGQGTLVTVSS
VL: EIVMTQSPATLSVSPGERATLSCKASQSVDYDGDSYMNWYQQKPGQPPRLLIYAASNLESGIPARFSGSGSGTEFTLTISSLQSEDFAVYYCQQSRELPYTFGQGTKLEIK
notes: Humanized FL-M88
B5: humFL-M88-3 (antibody, human IgG4, V domains shown)
VH: QVQLVQSGAEVKKPGASVKVSCKGSGYTFTDYTIHWVRQAPGQGLEWMGVISTYQGDASYNQKFKGRATMTVDKSTSTAYMELSSLRSEDTAVYYCARFPDWDYAMDYWGQGTLVTVSS
VL: EIVMTQSPATLSVSPGERATLSCKASQSVDYDGDSYMNWYQQKPGQPPRLLIYAASNLESGIPARFSGSGSGTEFTLTISSLQSEDFAVYYCQHSRELPYTFGQGTKLEIK
notes: Humanized FL-M88
B6: humFL-M88-13 (antibody, human IgG4, V domains shown)
VH: QVQLVQSGAEVKKPGASVKVSCKGSGYTFTDYTIHWVRQAPGQGLEWIGVISTYQGDASYNQKFKGRATMTVDKSTSTAYMELSSLRSEDTAVYYCARFPDWDYAMDYWGQGTLVTVSS
VL: EIVMTQSPATLSVSPGERATLSCKASQSVDYDGDSYMNWYQQKPGQPPRLLIYAASNLESGIPARFSGSGSGTEFTLTISSLQSEDFAVYYCQQSRELPYTFGQGTKLEIK
notes: Humanized FL-M88
B7: FL-M54 (antibody, V domains shown)
VH: EVQLQQSGVELVKPGASVKLSCKASGYTFTRFDISWVRQRPEQGLEWIGWIFPGDGSSQYNENFKGKATLTTDKSSGTAYMQLNRLTSEDSAVYFCARSLISTAMFDHWGQGTTLTVSS
VL: DIVMTQSPASLAVSLGQRATISCRASKSVSTSDFSYIHWYQQKPGQPPKLLIFLASHLESGVPARFSGSGSGTDFTLNIHPVEEEDAATYYCQHSRELPRTFGGGTKLEIK
notes: as for B2

How the values were obtained:
[1] = target: hFc-hFasL (fusion protein of human Fc fragment and human FasL extracellular region) (human) (UniProt P48023); experiment: cell-based or functional assay
[2] = target: hFc-hFasL (fusion protein of human Fc fragment and human FasL extracellular region) (human) (UniProt P48023); experiment: ELISA, hFc-hFasL coated, sample titrated (detection for this reference not separately stated)
[3] = target: T1, hFc-hFasL (fusion protein of human Fc fragment and human FasL extracellular region) (human, UniProt P48023 134-281); experiment: cell-based or functional assay
T1 sequence: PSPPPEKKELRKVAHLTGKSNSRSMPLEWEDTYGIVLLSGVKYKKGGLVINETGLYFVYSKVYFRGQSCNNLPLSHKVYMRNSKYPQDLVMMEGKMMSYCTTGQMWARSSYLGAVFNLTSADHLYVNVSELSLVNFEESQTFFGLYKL

[4] = target: T1, hFc-hFasL (fusion protein of human Fc …); experiment: ELISA, hFc-hFasL coated, sample titrated (detection for this reference not separately stated)
[5] = target: T1, hFc-hFasL (fusion protein of human Fc …); experiment: cell-based or functional assay; remark: listed apart in the source
[6] = target: T1, hFc-hFasL (fusion protein of human Fc …); experiment: cell-based or functional assay; remark: listed apart in the source
[7] = target: T1, hFc-hFasL (fusion protein of human Fc …); experiment: ELISA, hFc-hFasL coated, antibody titrated, anti-human kappa-HRP
[8] = target: T1, hFc-hFasL (fusion protein of human Fc …); experiment: cell-based or functional assay; remark: listed apart in the source
[9] = target: T1, hFc-hFasL (fusion protein of human Fc …); experiment: cell-based or functional assay; remark: listed apart in the source
[10] = target: T1, hFc-hFasL (fusion protein of human Fc …); experiment: ELISA, hFc-hFasL coated, antibody titrated, anti-human kappa-HRP (protocol of Example 3.2)
[11] = target: T1, hFc-hFasL (fusion protein of human Fc …); experiment: cell-based or functional assay; remark: listed apart in the source

Molecule | EC50(nM), FasL antigen-induced NF-κB signaling pathway activation (SEAP, HepG2-Dual) [3] | IC50(nM), FasL antigen-induced apoptosis of Jurkat cells (CellTiter-Glo ATP) [5] | IC50(nM), FasL antigen-induced apoptosis of HepG2 cells (CellTiter-Glo ATP) [6] | EC50(nM), FasL antigen-induced NF-κB signaling pathway activation [8] | HepG2 IC50(nM), FasL antigen-induced cell apoptosis [9] | Jurkat IC50(nM), FasL antigen-induced cell apoptosis [9] | EC50 [10] | further results
MAB126-100 (commercial anti-FasL antibody, RD) |  |  |  |  |  |  |  | HepG2 IC50(nM), FasL antigen-induced cell apoptosis [1]: 0.074 nM; IC50(nM), FasL antigen-induced apoptosis of HepG2 cells (CellTiter-Glo ATP) [1]: 0.099 nM; Jurkat IC50(nM), FasL antigen-induced cell apoptosis [1]: 0.046 nM; EC50 [2]: 948 pM
B1 | 7.23 nM | > 100 nM | 11.3 nM |  |  |  |  | EC50 [4]: 23500 pM
B2 | 3.01 nM | 0.023 nM | 0.016 nM |  |  |  |  | EC50 [7]: 811 pM
B3 |  |  |  | 0.454 nM | 0.0125 nM | 0.0193 nM | 265 pM | 
B4 |  |  |  | 0.47 nM | 0.0143 nM | 0.0149 nM | 301 pM | 
B5 |  |  |  | 0.444 nM | 0.0276 nM | 0.0192 nM | 273 pM | 
B6 |  |  |  | 0.698 nM | 0.0126 nM | 0.0243 nM | 302 pM | 
B7 | 1.97 nM | 0.018 nM | 0.018 nM |  |  |  |  | HepG2 IC50(nM), FasL antigen-induced cell apoptosis [11]: 0.023 nM; Jurkat IC50(nM), FasL antigen-induced cell apoptosis [11]: 0.023 nM; EC50 [7]: 725 pM
